{"source": "paper PMC12117405", "target": "Lsm2/Lsm3;Lsm6/Lsm5/Lsm7;Lsm4-link-Lsm8 (human;human;human, UniProt Q9Y333;P62310;P62312;Q9Y4Y9;Q9UK45;Q9Y4Z0;O95777 …, ||)", "experiment": "gel filtration co-elution", "data": [{"binder": "GGCAAUUUUUGACAGUCUCUACGGAGACUG (structured_RNA)", "note": "[U4-5'Δ]", "values": [{"measurement": "binding result", "result": "no binding"}]}]}
